US20230242598A1, “FUNCTIONAL POLYPEPTIDES AND USE THEREOF” (priority 2020, published 2023)
Where two headings read alike, the source gives them in different places.

Columns and labels:
L1210 = settings: Kobayashi et al. 1994; cited from earlier work
HeLa = settings: cited from earlier work
smooth muscle cell = settings: Frew et al. 2008; cited from earlier work
mice = settings: i.p.; cited from earlier work
HeLa cells = assay: Cytotoxicity of SOR, Cell Counting Kit-8 (WST-8); type: cell-based, human; settings: ratio of cytotoxicity, HeLa versus L1210
Method: The cytotoxicity of SOR was evaluated using L1210 (RBRC-RCB2844, Riken) and HeLa (RBRC-RCB0007, Riken) cells. RPMI1640 medium supplemented with 10% FBS was used for the L1210 cells, and EMEM supplemented with 10% FBS was used for the HeLa cells. The cells were precultured for 3 days (L1210) or 7 days (HeLa) using a CO2 incubator (37° C., 5% CO2). […]. SOR dissolved in a medium (200 μg/mL) was filtered ([…]), and serially diluted 2-fold, and the diluted products were added to wells in an amount of 10 μL/well such that the final concentration of SOR was 50 to 0.024 μg/mL. The cells of each line were incubated for 48 hours, and the growth of the cells was quantified using Cell Counting Kit-8 (Dojindo Laboratories Co., Ltd.) based on the WST-8 method according to manufacturer's protocol. Absorption at 450 nm was measured using a microplate reader, and a mean of triplicate data was plotted to prepare a concentration-response curve, followed by analysis using Prism software. […].

Aplysia kurodai eggs = assay: Toxicity in Aplysia kurodai egg (influence on cleavage and development); type: in vivo
Method: Eggs were taken out of a newly deposited egg mass of Aplysia kurodai, and influence on cleavage was examined using the collected eggs. Eggs were taken out of the egg mass in artificial seawater (ASW) and gently centrifuged by hand centrifuge apparatus. The precipitated eggs were rinsed with ASW twice. Filtered natural seawater was added to a 24-well plate (2 mL/well), to which SOR (10 μL/well) and subsequently the liquid containing the eggs (20 μL/well) were added. Then, egg development was observed under microscope every few hours. […] Untreated control eggs underwent the second cleavage 6 hours after fertilization and developed into morula in 24 hours; […].

mice (ddY, male) = type: in vivo; settings: i.c.v.
Method: Toxicity in mice was assessed by intracerebroventricularly injecting varying concentrations of SOR to mice (ddY, male, 3 to 4 weeks old, Japan SLC, Inc.) (Sakai et al., J Pharmacol Exp Ther. 2001; 296(2):650-8). […] […].

Plasmid DNA (pTAC-1) = assay: Cleavage of DNA by natural SOR, agarose electrophoresis; type: biochemical; settings: SOR 8.8 μg/mL, with or without EDTA 12.5 mM, room temperature, 24 hours
Method: Plasmid DNA (pTAC-1, 4 ng, BioDynamics Laboratory, Inc.), or the plasmid DNA and EDTA (12.5 mM) were added to and mixed with a hydrophobic interaction chromatography fraction containing SOR (8.8 μg/mL) or a Tris-HCl buffer (pH 8.3) containing 0.1 M NaCl. The mixture was left at room temperature for 24 hours, separated by agarose electrophoresis, stained with ethidium bromide (15 min), and subsequently observed under UV light (260 nm). Thermo scientific GeneRuler 1 kb DNA Ladder (Thermo Fisher Scientific Inc.) was used as a marker.

[1] = system: HeLa cells (derived from human uterine cervix cancer); assay: Intracellular translocation into HeLa cell, confocal laser microscope; type: cell-based; settings: overall conclusion
Method: Whether SOR could translocate into cells and further into the nuclei was studied using fluorescently labeled SOR. […] Also, BSA labeled with FITC in the same manner as above was used as a control.
The same experiment as in the section (1) was also conducted for HeLa cells (derived from human uterine cervix cancer). A HeLa suspension prepared at approximately 2.2×10^4 cells/mL was added at 270 μL/well to 8-well chamber cover glass (Eppendorf) to make approximately 6.0×10^3 cells/well, followed by preculture at 37° C. for 24 hours in a 5% CO2 incubator. […] The cells thus supplemented with the sample was subjected to fixing and permeabilization treatment over each time period from 30 minutes to 16 hours, and stained with DAPI. Then, a mount was prepared.

[2] = Isoelectric point by two-dimensional polyacrylamide gel electrophoresis (2-DE); type: physicochemical; settings: IPG Strip 3-6
Method: Next, the isoelectric point of SOR was determined by two-dimensional polyacrylamide gel electrophoresis (2-DE). First, 443 μg of a sample was mixed with a rehydration solution (8 M urea, 0.5% 3-[(3-cholamidopropyl)dimethylammonio]-prop anesulfonic acid (CHAPS), 0.5% Bio-Lyte 3/10 (Bio-Rad Laboratories, Inc.), 0.2% dithiothreitol, 0.002% bromophenol blue). The obtained solution was applied to IPG Strip 3-6 (Bio-Rad Laboratories, Inc.). Isoelectric focusing electrophoresis was performed at 20° C. as follows: rehydration for 12 hours, 300 V for 30 minutes, 1000 V for 30 minutes, and 5000 V for 2 hours. After electrophoresis, the strip was equilibrated for 15 minutes with shaking in 2% SDS, 50 mM Tris-HCl, pH 8.8, 6 M urea, 30% glycerol, and 0.25% DTT. Subsequently, the strip was re-equilibrated for 15 minutes with shaking in 2% SDS, 50 mM Tris-HCl, pH 8.8, 6 M urea, 30% glycerol, and 4.5% iodoacetamide. The strip was put on a 12% polyacrylamide gel, and the second electrophoresis was performed in the same manner as in SDS-PAGE. The gel was stained with a silver staining kit (Wako Pure Chemical Industries, Ltd.).

Molecule: CO[C@H]1C[C@H](CC[C@H](C)[C@H](O)[C@H](C)[C@H]2OC(=O)/C=C/C(C)=C/C[C@H](O)C[C@@H]3C=CC[C@@H](C[C@H](OC)[C@@H](C)[C@@H](O)C[C@@H](O)[C@H](C)[C@@H]([C@@H](C)[C@@H](O)[C@@H](C)CC[C@H]4C[C@H](OC)C[C@H](C)O4)OC(=O)/C=C/C(C)=C/C[C@H](O)C[C@@H]4C=CC[C@@H](C[C@H](OC)[C@@H](C)[C@@H](O)C[C@@H](O)[C@@H]2C)O4)O3)O[C@@H](C)C1 [Swinholide A]
- IC50 (L1210): 22 nM

Molecule: CC(=O)O[C@H]1C(=O)[C@@]2(C)[C@H]([C@H](OC(=O)c3ccccc3)[C@]3(O)C[C@H](OC(=O)[C@H](O)[C@@H](NC(=O)c4ccccc4)c4ccccc4)C(C)=C1C3(C)C)[C@]1(OC(C)=O)CO[C@@H]1C[C@@H]2O [Paclitaxel]
- IC50 (HeLa; Liebmann et al. 1993): 2.6 nM

Molecule: C=CC[C@H](C)[C@H](C)C[C@@H](O)[C@H](O)[C@@H]1CC[C@@]2(C)O[C@@]3(C)C[C@@]4(C)O[C@H]5/C=C\C[C@H]6O[C@H]7C[C@H]8O[C@H]9C[C@@]%10(C)O[C@@](C)([C@@H]%11CC[C@H]%12O[C@@]%13(C)C[C@H]%14O[C@@]%15(C)C[C@H]%16O[C@@]%17(C)C[C@@H](O)[C@H]([C@@H]%18O[C@H]%19[C@H](O)[C@@H](O)[C@H](C[C@H](O)C[C@@H](O)[C@@H]%20O[C@H]%21[C@H](O)[C@@H](O)[C@H]([C@@H]%22O[C@@H]%23[C@H](O)[C@H]%24O[C@H]%25C[C@H]%26O[C@@H](C[C@H](O)[C@@H](O)[C@H]%27O[C@H]%28[C@H](O)[C@H]%29O[C@H]%30C[C@H]%31O[C@H]%32[C@@H](O)[C@@H](O)[C@H]([C@H](C)[C@H](O)[C@H](C)CC[C@H](OS(=O)(=O)[O-])[C@H](O)[C@H](C)C[C@@H](O)C(=C)/C(C)=C/CO)O[C@@H]%32[C@H](O)C[C@]%31(C)O[C@@H]%30C[C@]%29(C)O[C@@H]%28C[C@H]%27O)[C@H](OS(=O)(=O)[O-])[C@H](O)[C@@H]%26O[C@@H]%25C[C@@H]%24O[C@H]%23[C@H](O)[C@H]%22O)O[C@H]%21C[C@H]%20O)O[C@H]%19C[C@H]%18O)O[C@@H]%17[C@H](O)[C@]%16(C)O[C@@H]%15CC[C@]%14(C)O[C@@H]%13C[C@@H]%12O%11)[C@H](O)C[C@@H]%10O[C@]9(C)CC[C@]8(C)O[C@]7(C)C[C@@H]6O[C@@H]5C[C@@H]4O[C@@H]3C[C@@H]2O1.[Na+].[Na+] [Maito toxin]
- IC50 (smooth muscle cell): ~0.058 nM
- Lethal dose (mice): 37.9 pmol/kg

Molecule: C=C1[C@@H](C)[C@H]2[C@H](Cc3ccccc3)NC(=O)[C@]23[C@H](OC(C)=O)/C=C/[C@@](C)(O)C(=O)[C@@H](C)C/C=C/[C@H]3[C@@H]1O [Cytochalasin D]
- IC50 (HeLa; Miranda et al. 1974): 100 nM

B1: soritesidine (protein)
chain: HFSLKRQDSSITHQTVSIFCITILLLSVSAYFPNSIPEAQAKLGDQRQIDIASWNTFDFGGKFGGVCKANDPTILQAMTDVISQHDVILVQEIANVTNPCNPANIFSGFNNLCSNNYLGGLGYLCQDTGIVGSGEGYGIIYKNNTGIGNVVIERTDNPNTVPYIPAGGGNNQMKRPPMKATLDFNAGAFNVVVYNAHTSPSGGVPKEIKLLSDRISPAHNPLDKNAVITLGDLNADGKRRLPNGQLDHGTDYYRGGFAAHPNDFPVSGWQQTVTDTDVTNFAQTLRAYDRMILSNATHNSYDEYGIIGGIPNPLPYPGGVYPAGTLFKNVHTGGGNTGKALSDHRLIWSKLNYGAIETTDNNGNTKSNFVEFTNPPQCTAPDTVYAKGADFVPNRTVDIYITKQPDNQNFIPLPQPQNPTNPGQFKQVGESYQLTDVRTTGKSTHNIDANGNIANTAVWVQPTPNQQYNLIVDVDRDGYFTNSIDIVDAFNTQGFDVDPCLRKRLAASLSDGIPAGDGTRDFVKPPKIFISGDWFPQGSARIYIIIYDKNFDYNGNDSKVLTDVRGTYDTITVGENHKFTGLEWSSPHVGNYNIIFDANSDGVYKKSDGDIVDHINEIGFAMLESYPHHSHIVDLDDNANQREDFNSGIAKNVYVLATNLPNPSTIVDVYVISEKLLKLNNPGWTTWQQSSNVPLKESAAPTNNGDRLHPTWVTPQKTVFGSVWHMPGDTFDPPYINYYGKKFTIVIDVNRDGKYDPSIDMVDTHDIGDMTDWFITQGHHDLSPTSGNGQPAVSEYKEYLNSKLDLENPLDNTNNYDAATEAASAQYLCRTNLPINLFENVIELGAQTGFIMFNPDEYYAGRDLNSGRHIYDAVDFDGLEINDGYTSVISAKEMTLNRLGVGQNSNLLTCGADTVTIDGMSTQKDSTTNIVAKTISHKSNISLEADTCTHYTHNLYFESDTNILVKAIESPFAWIIDVGDRILPGTGC
- selectivity for the HeLa cells over the L1210 cells (HeLa cells): approximately 200 times
- influence on egg cleavage and development (Aplysia kurodai eggs; SOR 1.3 ng/mL): overall shape of the cells was shrunken and bubble-like protrusions on the cell surface were often observed, though development progressed
- influence on egg cleavage and development (Aplysia kurodai eggs; SOR 1.3 μg/mL, 24 hours): only two blastomeres were observed even 24 hours later
- influence on the morphology of the eggs (Aplysia kurodai eggs; varying SOR concentrations): concentration-dependent influence on the morphology of the eggs
- Lethal dose (mice (ddY, male)): 1.60 pmol/kg
- acute toxicity (mice (ddY, male)): no acute toxicity was observed
- dosage causing lethal toxicity (mice (ddY, male)): 5.74 ng/mouse
- time to death (mice (ddY, male); 574 ng of SOR): 18 h
- time to loss of normal posture (mice (ddY, male); 574 ng of SOR): 17 h
- time to loss of voluntary movement (mice (ddY, male); 574 ng of SOR): 14 h
- eye observation after administration (mice (ddY, male); 14 hours or later after administration): Reddish ring around eyes was observed
- cleavage of DNA (Plasmid DNA (pTAC-1)): cleaved DNA in a metal ion-dependent manner
- intracellular translocation [1]: intracellular translocation of SOR was confirmed
- isoelectric point (pI) [2]: approximately 4.5
